Changes are numbered by the printed parent chain. Names may count otherwise.
B1: H4H15479P (antibody, human IgG4, V domains shown)
VH: QVQLQQWGAGLLNPSETLSLTCAVYGGAFSDYYWNWIRQPPGKGLEWIGEINHRGSTNYNPSLKSRVTISVDTSKNQFSLRMSSVTAADAAVYYCARGEDYDIWNGYYQEKWGQGTLVTVSS
VL: EIVLTQSPATLSLSPGERATLSCRASQSISTYLAWYQQKPGQAPRLLIYDASKRATGIPARFSGSGSGTDFTLTISSLEPEDFVVYYCHQRSNWPLTFGGGTKVEIK
B2: H4sH15482P (antibody, human IgG4 S228P, kappa)
heavy: QVQLVESGGGVVQPGRSLRLSCVASGFTFSSYGMHWVRQAPGKGLEWVAIIWYDGSNKYYADSVKGRFTISRDNSKNTQYLQMNSLRAEDTAVYYCASVATSGDFDYYGMDVWGQGTTVTVSSASTKGPSVFPLAPCSRSTSESTAALGCLVKDYFPEPVTVSWNSGALTSGVHTFPAVLQSSGLYSLSSVVTVPSSSLGTKTYTCNVDHKPSNTKVDKRVESKYGPPCPPCPAPPVAGPSVFLFPPKPKDTLMISRTPEVTCVVVDVSQEDPEVQFNWYVDGVEVHNAKTKPREEQFNSTYRVVSVLTVLHQDWLNGKEYKCKVSNKGLPSSIEKTISKAKGQPREPQVYTLPPSQEEMTKNQVSLTCLVKGFYPSDIAVEWESNGQPENNYKTTPPVLDSDGSFFLYSRLTVDKSRWQEGNVFSCSVMHEALHNHYTQKSLSLSLGK
light: EIVLTQSPATLSLSPGERTTLSCRASQRISTYLAWYQQKPGQAPRLLIYDASKRATGIPARFSGSGSGTGFTLTISSLEPEDFAVYYCQQRSNWPLTFGGGTKVEIKRTVAAPSVFIFPPSDEQLKSGTASVVCLLNNFYPREAKVQWKVDNALQSGNSQESVTEQDSKDSTYSLSSTLTLSKADYEKHKVYACEVTHQGLSSPVTKSFNRGEC
notes: H4sH = modified human IgG4 Fc; also called mAb1
B3: H4H15482P (antibody, human IgG4 S228P, kappa)
heavy: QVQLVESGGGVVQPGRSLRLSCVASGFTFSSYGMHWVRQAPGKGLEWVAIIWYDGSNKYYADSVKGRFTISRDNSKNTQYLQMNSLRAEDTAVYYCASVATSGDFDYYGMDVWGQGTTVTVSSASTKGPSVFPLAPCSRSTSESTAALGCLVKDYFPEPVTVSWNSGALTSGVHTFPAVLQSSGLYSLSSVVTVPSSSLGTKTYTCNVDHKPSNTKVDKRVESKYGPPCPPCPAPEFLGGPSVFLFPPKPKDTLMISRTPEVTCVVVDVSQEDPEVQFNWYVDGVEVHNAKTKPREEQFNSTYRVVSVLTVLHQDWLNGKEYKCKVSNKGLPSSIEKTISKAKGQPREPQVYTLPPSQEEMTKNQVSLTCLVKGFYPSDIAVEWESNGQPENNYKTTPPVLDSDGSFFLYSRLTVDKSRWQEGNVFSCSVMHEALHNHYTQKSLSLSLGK
light: B2 light
notes: H4H = human IgG4 Fc with S108P
B4: H4sH15498P2 (antibody, V domains shown)
VH: EVQLVESGGGLVQPGGSLRLSCAASGFTFTSYAMTWVRQAPGKGLEWVSDISGSGGRTYYADSVKGRFTISRDNSKNMLYLQMNILRAEDTAVYHCAKGTGQQVDLYNYYYALDVWGQGTTVTVSS
VL: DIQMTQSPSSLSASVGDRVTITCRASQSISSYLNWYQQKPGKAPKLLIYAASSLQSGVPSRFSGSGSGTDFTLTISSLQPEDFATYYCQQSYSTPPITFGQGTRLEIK
notes: H4sH = human IgG4 Fc with 2 or more amino acid changes as disclosed in US20140243504
B5: H4H15498P2 (antibody, human IgG4, V domains shown)
VH: B4 VH
VL: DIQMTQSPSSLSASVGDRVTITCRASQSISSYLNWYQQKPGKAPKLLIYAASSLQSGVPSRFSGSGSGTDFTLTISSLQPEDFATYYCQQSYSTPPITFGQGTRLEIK
notes: H4H = human IgG4 Fc with S108P hinge mutation
B6: H4sH14813N (antibody, human IgG4 S228P, kappa, V domains shown)
VH: QVQLQQWGAGLLKPSETLSLTCAVYGGSFSGYYWNWIRQPPGKGLEWVGEISHRGSTNYNPSLKSRVTISLDTSKNQFSLKLTSVTAADTAVYYCSRDEELEFRFFDYWGQGTLVTVSS
VL: EIVLTQSPATLSLSPGERATLSCRASQSVSSYLAWYQQKPGQAPRLLVYGASNRATGIPARFSGSGSGTDFTLTISSLEPEDFAFYYCQQRSNWPLTFGGGTKVEIKR
notes: H4sH = modified human IgG4 Fc
B7: H4H14813N (antibody, human IgG4, V domains shown)
VH: B6 VH
VL: B1 VL with I29V, T31S, I48V, D50G, K53N, V84A, V85F, H89Q
notes: as for B5
B8: H4H17823P (antibody, human IgG4, V domains shown)
VH: EVQLLESGGGLVQPGGSLRLSCAASGFTFRSYAMSWVRQAPGKGLEWVSVISGGGGRTYYTDSVKGRFTISRDNSKSMLYLQMNSLRAEDTAIYYCAKERVTGIDHYYYGVDVWGQGTTVTVSS
VL: DIQMTQSPSSLSASVGDRVTITCRASQSISSYLNWYQQKPGKAPKLLIYATSSLQSGVPSRFSGSASGTDFTLAISSLQPEDFATYYCQQSYTTPLTFGGGTKVEIK
notes: as for B5
B9: H4H17828P2 (antibody, human IgG4, V domains shown)
VH: EVQLVESGGGLVQPGGSLRLSCAASGFTFKTYAMSWVRQAPGRGLEWVSGISGSGSTSYYADSVKGRFTISRDNYKKTLSLQMNSLRAEDTAVYYCALDIMATVGGLFNNWGQGTLVTVSS
VL: not shown
notes: as for B5
B10: H4sH15479P (antibody, V domains shown)
VH: B1 VH
VL: B1 VL

What follows are binders tested against T1, human LAG3 expressed on HEK293 cells (human, UniProt P18627 23-525) (assay: flow cytometry, HEK293/hLAG3 cells).
T1 construct: also called hLAG3; HEK293/hLAG3
T1 sequence: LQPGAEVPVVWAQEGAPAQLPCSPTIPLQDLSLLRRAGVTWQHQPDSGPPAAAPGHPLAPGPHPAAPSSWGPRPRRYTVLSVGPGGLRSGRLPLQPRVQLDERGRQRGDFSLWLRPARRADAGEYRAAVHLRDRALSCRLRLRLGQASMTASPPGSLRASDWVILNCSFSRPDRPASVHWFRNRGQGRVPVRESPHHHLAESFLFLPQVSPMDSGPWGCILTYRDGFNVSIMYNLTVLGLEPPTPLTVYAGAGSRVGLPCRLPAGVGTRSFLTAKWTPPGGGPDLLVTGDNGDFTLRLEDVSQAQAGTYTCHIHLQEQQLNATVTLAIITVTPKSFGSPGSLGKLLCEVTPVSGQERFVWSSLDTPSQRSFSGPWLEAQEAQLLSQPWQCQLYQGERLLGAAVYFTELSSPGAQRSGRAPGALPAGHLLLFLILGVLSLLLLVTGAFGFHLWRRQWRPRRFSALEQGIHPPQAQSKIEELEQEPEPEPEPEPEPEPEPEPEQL
Description: (§1) The serially diluted antibodies were added to the cell suspension and incubated for 15-30 minutes on ice. The cells were centrifuged and pellets were washed with staining buffer to remove unbound antibodies. […] The cells were centrifuged and pellets were washed with staining buffer to remove unbound secondary F(ab′)2 and fixed overnight with a 1:1 dilution of Cytofix (BD Biosciences, #554655) and staining buffer. Following day, fixed cells were centrifuged and pellets were washed with staining buffer, resuspended and filtered. Fluorescence measurements were acquired on HyperCyt® cytometer and analyzed in ForeCyt™ (IntelliCyt; Albuquerque, N. Mex.) to determine the mean fluorescence intensities (MFI). The EC₅₀ values were calculated from a four-parameter logistic equation over an 11-point response curve using GraphPad Prism. EC₅₀ was defined as the concentration of antibody at which 50% of maximal binding signal is detected. The MFI ratio for each antibody was calculated by dividing the MFI at 100 nM by MFI at 0 nM of antibody concentration.

Row | Binder | EC50 [nM] | Ratio of MFI (100 nM/0 nM)
1 | B1 | 0.752 | 203
2 | B2 | 1.11 | –
3 | B3 | 1.91 | –
4 | B4 | 7.92 | 401
5 | B5 | 5.76 | 305
6 | B6 | 1.18 | 197
7 | B7 | 1.44 | 208
8 | B8 | 1.25 | 305
9 | B9 | 2.65 | 355
10 | B10 | 0.903 | 199

Target: T2, monkey LAG3 (mfLAG3) expressed on HEK293 cells (cynomolgus monkey, UniProt P18627 24-525 (human entry))
T2 construct: also called HEK293/mfLAG3; HEK293-mfLAG3
T2 chain: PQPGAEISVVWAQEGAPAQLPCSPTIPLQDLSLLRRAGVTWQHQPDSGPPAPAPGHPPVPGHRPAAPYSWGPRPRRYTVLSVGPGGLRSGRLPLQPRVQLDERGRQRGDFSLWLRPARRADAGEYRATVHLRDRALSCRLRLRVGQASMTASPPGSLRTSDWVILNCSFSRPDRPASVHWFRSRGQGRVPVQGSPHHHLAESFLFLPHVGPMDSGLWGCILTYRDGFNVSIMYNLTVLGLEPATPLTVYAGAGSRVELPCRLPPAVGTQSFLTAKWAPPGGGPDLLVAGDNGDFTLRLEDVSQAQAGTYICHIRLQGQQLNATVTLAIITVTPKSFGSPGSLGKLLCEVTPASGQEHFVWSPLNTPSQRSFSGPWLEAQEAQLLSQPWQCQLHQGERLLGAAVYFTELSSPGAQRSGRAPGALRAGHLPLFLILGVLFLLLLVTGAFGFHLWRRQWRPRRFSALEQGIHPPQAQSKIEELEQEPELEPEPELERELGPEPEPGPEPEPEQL
Test: flow cytometry, HEK293/mfLAG3 cells
Description: as §1

Row | Binder | EC50 [nM] | Ratio of MFI (100 nM/0 nM)
11 | B1 | 1.35 | 21.5
12 | B4 | > 10 | 12.1
13 | B5 | > 10 | 12.8

What follows are binders tested against T1, human LAG3 expressed on HEK293 cells (assay: electrochemiluminescence cell binding).
Description: (§2) To investigate the ability of a panel of anti-LAG3 monoclonal antibodies to bind cell-surface expressed LAG3, an in vitro binding assay utilizing human and monkey LAG3 expressing cell lines in an electrochemiluminescence based detection platform [Meso Scale Diagnostics, Rockville, Md.—(MSD)] was developed.
(§3) Experiments were carried out according to following procedure. Cells from the three cell lines described above were rinsed once in 1×PBS buffer without Ca²⁺/Mg²⁺ followed by 10-minute incubation at 37° C. with Enzyme Free Cell Dissociation Solution. […] Approximately 10,000 cells per well in the cell-washing buffer were seeded into the 96-well carbon electrode plates (MULTI-ARRAY high bind plate, MSD) and incubated for 1 hour at 37° C. to allow the cells to adhere. Nonspecific binding sites were blocked by 2% BSA (w/v) in PBS for 1 hour at room temperature. […] The plates were then washed to remove the unbound antibodies using an AquaMax2000 plate washer (MDS Analytical Technologies). The plate-bound antibodies were detected with a SULFO-TAG™-conjugated anti-human IgG antibody (MSD) for 1 hour at room temperature. After washes, the plates were developed with the Read Buffer (MSD) according to manufacturer's recommended procedure and the luminescent signals were recorded with a SECTOR Imager 6000 (MSD) instrument. The direct binding signals (in relative light units—RLU) were analyzed as a function of the antibody concentration and the data were fitted with a sigmoidal (four-parameter logistic) dose-response model using Graph Pad Prism™ software. The potency of each antibody was determined by calculating EC₅₀.

Row | Binder | Ratio of 100 nM antibody binding HEK293-hLAG3 to HEK293 cells
14 | B1 | 20.1
15 | B4 | 99.8
16 | B5 | 38.8
17 | B6 | 19.8
18 | B7 | 8.9
19 | B8 | 5.3
20 | B9 | 8.7
21 | B10 | 17.8

Each binder was assayed against T1, human LAG3 expressed on HEK293 cells (assay: electrochemiluminescence cell binding, HEK293-hLAG3).
Description: as §2, §3

Row | Binder | EC50 [nM]
22 | B1 | 52
23 | B3 | 24.7
24 | B4 | 2.87
25 | B5 | 2.95
26 | B6 | 20.3
27 | B7 | 19.9
28 | B8 | 1.5
29 | B9 | 1.2
30 | B10 | 13.4

The binders below were run against T1, human LAG3 expressed on HEK293 cells (assay: cell adherence assay, blocks RAJI (human MHCII) cells on HEK293-hLAG3).
Description: Cells were plated into sterile Nunclon™ Delta 96-Well MicroWell™ Black Optical Bottom Plates (Thermo Scientific). The wells from the perimeter of the plate were not included in the assay design to avoid edge effects.
On the day of treatment, all antibodies were serially (1:3) diluted in RPMI media (without FBS or supplements added). The 9-point dilution ranged between 45 pM to 300 nM, with the last dilution point containing no mAb. […] While the plated HEK293-LAG3 cells were incubating with the test or control antibodies, non-adherent B-cells (RAJI or A20) were labeled with Calcein AM using the following procedure. RAJI and A20 suspension cells were harvested and centrifuged at 1,200 rpm for 5 minutes. Cell pellets were resuspended in 1×PBS and counted. Cells were washed with RPMI, and resuspended in RPMI at a concentration of 10⁶ cells per 1 ml. Cells were labeled by adding 5 μL of Calcein AM per 1 ml of cell suspension and incubated for 30 min at 37° C., at 5% CO₂. […] Subsequently, 10 μL of BD Pharmingen Fc Block (0.5 mg/mL) was added per 1 ml of the Calcein AM labeled cells, which were incubated at RT for 10 minutes. The Calcein AM-stained, Fc-blocked RAJI or A20 cells were resuspended in RPMI to a final concentration of 3×10⁶ cells per 1 ml and subsequently used in the adherence assay.
The labeled suspension cells were incubated with the HEK293 monolayer for 1 hour at 37° C., at 5% CO₂.

Row | Binder | IC50 [nM]
31 | B1 | 31
32 | B2 | 3.3
33 | B3 | 15
34 | B4 | 16
35 | B5 | 15
36 | B6 | 6
37 | B7 | 17
38 | B8 | 8.6
39 | B9 | 11
40 | B10 | 9.6

Reference: patent US20170101472A1 (Regeneron, published 2017)
